Biological target: VLDLRLBD-Fc fusion protein (human, UniProt P98155-1 31-355)
Test: BLI; […] (2.6 µM) […]; kinetic buffer with 2 mM CaCl2
Details: both partners purified

B1: receptor-associated protein (RAP) (natural protein, human, UniProt P30533 35-353, looked up)
chain: YSREKNQPKPSPKRESGEEFRMEKLNQLWEKAQRLHLPPVRLAELHADLKIQERDELAWKKLKLDGLDEDGEKEARLIRNLNVILAKYGLDGKKDARQVTSNSLSGTQEDGLDDPRLEKLWHKAKTSGKFSGEELDKLWREFLHHKEKVHEYNVLLETLSRTEEIHENVISPSDLSDIKGSVLHSRHTELKEKLRSINQGLDRLRRVSHQGYSTEAEFEEPRVIDLWDLAQSANLTDKELEAFREELKHFEAKIEKHNHYQKQLEIAHEKLRHAESVGDGERVSRSREKHALLEGRTKELGYTVKKHLQDLSGRISRAR
  binding result: binds
